# Where a chain is given by its changes, count along the chain named.
# T1: human 5T4-His protein (human, UniProt Q13641 32-355)
# T1 construct: also called recombinant 5T4 protein (human 5T4-his tag); human 5T4 protein; not shown: His tag
# T1 sequence (looked up): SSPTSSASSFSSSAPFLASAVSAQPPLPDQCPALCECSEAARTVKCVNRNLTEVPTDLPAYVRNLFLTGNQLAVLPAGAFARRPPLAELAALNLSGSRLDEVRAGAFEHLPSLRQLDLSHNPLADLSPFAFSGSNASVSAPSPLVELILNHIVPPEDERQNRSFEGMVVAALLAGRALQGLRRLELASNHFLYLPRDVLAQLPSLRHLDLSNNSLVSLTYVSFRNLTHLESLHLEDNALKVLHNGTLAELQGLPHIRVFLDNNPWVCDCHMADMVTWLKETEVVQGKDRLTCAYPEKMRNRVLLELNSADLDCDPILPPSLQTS
# B1: 393E9_hVH2_hVL5 (antibody, V domains shown)
# VH: EVQLVESGGGLIQPGGSLRLSCAASGFTFTDYYMSWVRQPPGKGLEWVGFIRNKGNGYTTENSASVKGRFTISRDNSKSTLYLQMNSLRAEDTAVYYCARYRGNPHYAMDYWGQGTLVTVSS
# VL: EIVLTQSPGTLSLSPGERATLSCRASESVEFYGTSFLQWYQQKPGQAPRLLIYGASNVESGIPDRFSGSGSGTDFTLTISRLEPEDIAVYFCQQSRKVPSTFGGGTKVEIK
# notes: humanized
# B2: 393E9_hVH3_hVL5 (antibody, V domains shown)
# VH: B1 VH with E1Q, L11V, I12V, P40A
# VL: B1 VL
# notes: humanized
# B3: 393E9_hVH4_hVL2 (antibody, V domains shown)
# VH: B1 VH with I12V, P40A, T80S, R89K, A90T
# VL: B1 VL with G9A, L13V, D64A, D74E, R81S, E83Q, P84S
# notes: humanized
# B4: 393E9_hVH4_hVL5 (antibody, V domains shown)
# VH: B1 VH with I12V, P40A, T80S, R89K, A90T
# VL: B1 VL
# notes: humanized; also called Hu393E9-45
# B5: 393E9_hVH5_hVL5 (antibody, V domains shown)
# VH: B1 VH with I12V, G16R, A23T, P40A, T80I, R89K, A90T
# VL: B1 VL
# notes: humanized
# B6: 393E9_hVH6_hVL2 (antibody, V domains shown)
# VH: B1 VH with I12V, P40A, S77A, T80S
# VL: B1 VL with G9A, L13V, D64A, D74E, R81S, E83Q, P84S
# notes: humanized; also called Hu393E9-62
# B7: 393E9_hVH6_hVL5 (antibody, V domains shown)
# VH: B1 VH with I12V, P40A, S77A, T80S
# VL: B1 VL
# notes: humanized
# B8: 393E9_hVH2_hVL3 (antibody, V domains shown)
# VH: B1 VH
# VL: DIQLTQSPSSLSASVGDRVTITCRASESVEFYGTSFLQWYQQKPGKAPKLLIYGASNVESGVPSRFSGSGSGTDFTLTISSLQPEDIATYFCQQSRKVPSTFGGGTKVEIK
# notes: humanized
# B9: 393E9_hVH3_hVL3 (antibody, V domains shown)
# VH: B1 VH with E1Q, L11V, I12V, P40A
# VL: B8 VL
# notes: humanized
# B10: 393E9_hVH4_hVL3 (antibody, V domains shown)
# VH: B1 VH with I12V, P40A, T80S, R89K, A90T
# VL: B8 VL
# notes: humanized
# B11: 393E9_hVH5_hVL3 (antibody, V domains shown)
# VH: B1 VH with I12V, G16R, A23T, P40A, T80I, R89K, A90T
# VL: B8 VL
# notes: humanized; also called Hu393E9-53
# B12: 393E9_hVH6_hVL3 (antibody, V domains shown)
# VH: B1 VH with I12V, P40A, S77A, T80S
# VL: B8 VL
# notes: humanized
# B13: 393E9_hVH1_hVL4 (antibody, V domains shown)
# VH: B1 VH with I12V, P40A
# VL: DIVLTQSPLSLPVTPGEPASISCRASESVEFYGTSFLQWYLQKPGQSPQLLIYGASNVESGVPDRFSGSGSGTDFTLKISRVEAEDIGVYFCQQSRKVPSTFGGGTKVEIK
# notes: humanized
# B14: 393E9_hVH2_hVL4 (antibody, V domains shown)
# VH: B1 VH
# VL: B13 VL
# notes: humanized
# B15: 393E9_hVH3_hVL4 (antibody, V domains shown)
# VH: B1 VH with E1Q, L11V, I12V, P40A
# VL: B13 VL
# notes: humanized
# B16: 393E9_hVH5_hVL4 (antibody, V domains shown)
# VH: B1 VH with I12V, G16R, A23T, P40A, T80I, R89K, A90T
# VL: B13 VL
# notes: humanized
# B17: Hu286B4-1 (antibody, V domains shown)
# VH: EVQLQESGPGLVKPSDTLSLTCAVSGYSISNNYYWNWIRQPPGKGLEWIGYITYDGSNNYNPSLKNRVTMSRDTSKNQFSLKLSSVTAVDTAVYYCARGGGQLRFDYWGQGTTVTVSS
# VL: DIQMTQSPSSLSASVGDRVTITCKASQSVSNEVTWYQQKPGKAPKLLIYYASNRYTGVPDRFSGSGSGTDFTFTISSLQPEDIATYYCQQDYSSPWTFGGGTKVEIK
# notes: humanized
# B18: Hu286B4-2 (antibody, V domains shown)
# VH: B17 VH
# VL: B17 VL with L46M
# notes: humanized
# B19: Hu286B4-4 (antibody, V domains shown)
# VH: B17 VH
# VL: B17 VL with A43S, L46M, S67Y, Y87F
# notes: humanized
# B20: Hu286B4-6 (antibody, V domains shown)
# VH: B17 VH with V68I
# VL: B17 VL
# notes: humanized
# B21: Hu286B4-7 (antibody, V domains shown)
# VH: B17 VH with V68I
# VL: B17 VL with L46M
# notes: humanized
# B22: Hu286B4-9 (antibody, V domains shown)
# VH: B17 VH with V68I
# VL: B17 VL with A43S, L46M, S67Y, Y87F
# notes: humanized
# B23: Hu286B4-11 (antibody, V domains shown)
# VH: B17 VH with I49M, V68I, M70V
# VL: B17 VL
# notes: humanized
# B24: Hu286B4-12 (antibody, V domains shown)
# VH: B17 VH with I49M, V68I, M70V
# VL: B17 VL with L46M
# notes: humanized
# B25: Hu286B4-14 (antibody, V domains shown)
# VH: B17 VH with I49M, V68I, M70V
# VL: B17 VL with A43S, L46M, S67Y, Y87F
# notes: humanized
# B26: Hu286B4-16 (antibody, V domains shown)
# VH: B17 VH with S30T, I49M, V68I, M70V, A97T
# VL: B17 VL
# notes: humanized
# Target: T1, human 5T4-His protein
# Experiment: SPR Biacore, Protein A capture
# Method: The binding of the 393E9 humanized antibodies to recombinant 5T4 protein (human 5T4-his tag) was tested with Biacore using a capture method. The mAbs were captured using Protein A chip. A serial dilution of human 5T4-his tag protein was injected over captured antibody for 3 mins at a flow rate of 30 μl/min. The antigen was allowed to dissociate for 280-800 s. All the experiments were carried out on a Biacore T200. Data analysis was carried out using the Biacore T200 evaluation software.
Binder,Kd,koff,kon
B1,0.56 nM,0.000122 s⁻¹,217000 M⁻¹ s⁻¹
B2,0.502 nM,0.00012 s⁻¹,238000 M⁻¹ s⁻¹
B3,0.603 nM,0.000123 s⁻¹,204000 M⁻¹ s⁻¹
B4,0.595 nM,0.000129 s⁻¹,217000 M⁻¹ s⁻¹
B5,0.598 nM,0.000121 s⁻¹,202000 M⁻¹ s⁻¹
B6,0.687 nM,0.000137 s⁻¹,199000 M⁻¹ s⁻¹
B7,0.574 nM,0.000122 s⁻¹,212000 M⁻¹ s⁻¹
B8,0.684 nM,0.00012 s⁻¹,174000 M⁻¹ s⁻¹
B9,0.574 nM,0.000111 s⁻¹,193000 M⁻¹ s⁻¹
B10,0.706 nM,0.000128 s⁻¹,181000 M⁻¹ s⁻¹
B11,0.7 nM,0.000119 s⁻¹,170000 M⁻¹ s⁻¹
B12,0.691 nM,0.000124 s⁻¹,179000 M⁻¹ s⁻¹
B13,0.599 nM,0.000119 s⁻¹,199000 M⁻¹ s⁻¹
B14,0.65 nM,0.000127 s⁻¹,195000 M⁻¹ s⁻¹
B15,0.573 nM,0.000123 s⁻¹,215000 M⁻¹ s⁻¹
B16,0.679 nM,0.000125 s⁻¹,184000 M⁻¹ s⁻¹

# Target: T1, human 5T4-His protein
# Experiment: ELISA, coated 5T4-His
# Method: To evaluate the binding activity of 393E9 humanized antibodies to human 5T4, the 393E9 chimeric antibody (393E9-C) along with 393E9 humanized mAbs were subjected to ELISA test.
# Briefly, microtiter plates were coated with human 5T4-His protein at 1 μg/ml in PBS, 100 μl/well at 4° C. overnight, then blocked with 150 μl/well of 1% BSA. 4-fold dilutions of antibodies starting from 20 nM were added to each well and incubated for 1 hour at 37° C. The plates were washed with PBS/Tween and then incubated with Goat Anti-Human IgG-HRP for 30 mins at 37° C. After washing, the plates were developed with TMB substrate and analyzed by spectrophotometer at OD 450 nm. As shown in FIG. 12 and Table 9, most of the humanized antibodies bound to human 5T4 with high activity.
row,Binder,EC50
1,B1,0.11 nM
2,B2,0.12 nM
3,B3,0.12 nM
4,B4,0.22 nM
5,B5,0.11 nM
6,B6,0.11 nM
7,B7,0.19 nM
8,B8,0.11 nM
9,B9,0.14 nM
10,B10,0.13 nM
11,B11,0.12 nM
12,B12,0.052 nM
13,B13,0.13 nM
14,B14,0.12 nM
15,B15,0.095 nM
16,B16,0.17 nM

# Target: T1, human 5T4-His protein
# Experiment: ELISA, coated 5T4-His
# Remark: another data set of the same source
# Method: To evaluate the binding activity of clones, the 286B4 chimeric antibody along with 286B4 humanized mAbs were subjected to ELISA test.
# Briefly, microtiter plates were coated with human 5T4-His protein at 1 μg/ml in PBS, 100 μl/well at 4° C. overnight, then blocked with 150 μl/well of 1% BSA. 4-fold dilutions of tested antibodies starting from 20 nM were added to each well and incubated for 1 hour at 37° C. The plates were washed with PBS/Tween and then incubated with Goat Anti-Human IgG-HRP for 30 mins at 37° C. After washing, the plates were developed with TMB substrate and analyzed by spectrophotometer at OD 450 nm. As shown in FIG. 16 and Table 15, most of the humanized clones bound to human 5T4 with high potency.
row,Binder,EC50
1,B17,3.81 nM
2,B18,1.35 nM
3,B19,0.46 nM
4,B20,2.64 nM
5,B21,1.76 nM
6,B22,0.33 nM
7,B23,1.42 nM
8,B24,0.89 nM
9,B25,0.3 nM
10,B26,4.03 nM

# Source: patent publication US20250154277A1 (CONCEPT TO MEDICINE BIOTECH, published 2025)
